The source of these data is the supplement of paper PMC12636428.

The data set relates to Saccharomyces cerevisiae. As to the kind of experiment: transcriptional activation domain activity (GFP:mCherry ratio, weighted mean of sorted bins, harmonized to initial dataset scale) (arbitrary fluorescence ratio units); higher = stronger transcriptional activation. The conditions noted are these: beta-estradiol 1 µM; induction time 4 h. The method in brief:
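Barcoded protein tiles fused to an estradiol-inducible synthetic transcription factor were integrated at the yeast URA3 locus, in diploids carrying a GFP reporter. Cultures were diluted 1:5 into SC with 1 uM beta-estradiol, held 4 hours at 30 °C, sorted into 8 bins by GFP:mCherry ratio, and barcodes sequenced. Tiles under 50 reads were discarded. Activation activity is the read-weighted mean of bin median fluorescence, averaged across barcodes, then linearly mapped onto the initial dataset scale.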

“SLAVRTGAELGQDASMDDAEARNMDGNLDVDLAELSLGQRLTAVNGTEGAGRS”: the “transcriptional activation domain activity” value was found to be 19700.

“SLDALHIIFVAHSLYWYLVLNYITPLALLSIVWSFHLQIAINIMLIASVQTAY”: the “transcriptional activation domain activity” value was determined as 37300.

Turning to “SLDHTSLWIRRSVLSFSIEQIKKVFFQLFSTWYIFIFQLPYFPEWLWKNKTYP”, the “transcriptional activation domain activity” value amounted to 49100.

On to “SLDLEILEELEKLISAQEFSRNFTEDVDESLQSEIDLMNYDNEALNQLMAIDL”, for which the “transcriptional activation domain activity” value was found to be 137000.

Consider “SLEAWVPSVKLMMHDRSGLSRDGRTAVYHLIALTLRYSEIYVEQILVLWKGLV”, for which the “transcriptional activation domain activity” value is 44200.

Turning to “SLFFSVWALSQTWCVGHRRCSPMHLGTYYDAFIFLGISGMWKWSLLLIVIYRF”, the “transcriptional activation domain activity” value was 34000.

With “SLFLLVVSINDVQTINFFYFVTDYGSWLEIGTSISHFCIAELFIIFTICLFWL”, the “transcriptional activation domain activity” value was found to be 37800.

With “SLFLSFFIFPLFLFFYFFSFFFDLFIVCMVHLFLGKDLYLFGYQKVLFCFCLC”, the “transcriptional activation domain activity” value was determined as 65700.

With “SLGCLVKQAEYQVDGRSIGMDGYLFFFFFACCCFLYTSGLSFLYLFWFFFLVF”, the “transcriptional activation domain activity” value was determined as 22900.

“SLGCTLVYVAHISYLSLLPRFDYSYNMAFNLTLGLTHNFLWLLYSLPSFCAIP”: the “transcriptional activation domain activity” value turned out to be 52300.

For the sequence “SLGMGLDYWARLSGLYLQKLGWGYRVWCFSFWMGLSLGFLLLFSSLGAYILFL”, the “transcriptional activation domain activity” value is 55400.

Take “SLHFNLGELRRTLLPFMWLTLKLSFFLWIFGRHAASNKRVVLCILALLCVLWE”: the “transcriptional activation domain activity” value worked out at 64800.

As for “SLHKIHLVYRDVLRDKLRASVGCSRIRKILRSPPLYPTWMRCLFAFICASIIC”, the “transcriptional activation domain activity” value was 57600.

As for “SLHLAGCMLITCIGFIVLACLDVSQHIGAGYFCCFLLCCGGYISSPLLSTWYN”, the “transcriptional activation domain activity” value came out at 94700.

For the sequence “SLHLCFSMCLTMIGYIILIKIDTLEHKAVAYFACFLLTSGAFAPSCLFHSWHN”, the “transcriptional activation domain activity” value was 33300.

Turning to “SLIGIGITILQQLSEISFLPMTTFNISRCLWRLSLLTILACVNFGPSIYIFWF”, the “transcriptional activation domain activity” value is 51500.

Take “SLILVTYNTSHIACFYLLPQPHYFHLTSFLFLSIFFFLFSSLEHGSSFLAFFH”: the “transcriptional activation domain activity” value is 52500.

On to “SLISFRLLGEVATGIKYLVCYDMPNMSRIEVELAKRLYCLILCGLCTWSIYGR”, for which the “transcriptional activation domain activity” value is 79500.

As for “SLLAKCDNGDVLKLQEAIEEDDAAREERERAERAAAALKREKEGSASRVLVTG”, the “transcriptional activation domain activity” value was found to be 38800.

With “SLLEELTMRLLETDESHIKKIKDLSRFVNMIILRLFATGRRMSIFRSLFALLL”, the “transcriptional activation domain activity” value is 62600.

Consider “SLLLNDFSELRNGYFTSLFSLSLFLFLFAMPWTLTDITPFLMVLLFYHILFFI”, for which the “transcriptional activation domain activity” value was 69600.

For the sequence “SLLLPQQPVFVSENVGSEFSSLNEFLSMLENPLLTQTSLSSSSASNVHLENGS”, the “transcriptional activation domain activity” value turned out to be 98100.

As to “SLLMLLFIRGWFSYLIAVVSISGVLVLHMLYFLLQWRLKYILWLLLHCSIAIP”, the “transcriptional activation domain activity” value was found to be 79500.

As for “SLLPSPPQAVIFLVLFFSFLLLALFGYLFYFPLIPFLKTSIPIFSTYYSFFFM”, the “transcriptional activation domain activity” value came out at 24300.

As to “SLLQHLAEYFICFDSVVSFLLTLVVNVFRLTSFGIIRLVGWRPVVFFFFPSIY”, the “transcriptional activation domain activity” value was 50900.

For “SLLQSLPFPLQFLTLCFNSHLLIVIVVIIGCILESIYVGTFLWMLLRVCRWQG”, the “transcriptional activation domain activity” value was found to be 66500.

In the case of “SLLVLCECLLMTIGVVFTTPHVDFIYRCVNTVTPTTMVYFVVCVLFNHLVILL”, the “transcriptional activation domain activity” value is 73100.

On to “SLLVWEFCLRHPEVRDVCDLGQMIFWNNKGAFYFTAFMFILNNTFIQGLHCLV”, for which the “transcriptional activation domain activity” value stood at 72600.

For the sequence “SLNIDSMLDDYVSSDLLLNDDDDDTNLSRRRFSDVITNQFPSMTNSRNSISHS”, the “transcriptional activation domain activity” value turned out to be 52600.

With “SLNVLACGAIILFPRLAFLVVNNNAIVLGLRVMFVKFVFVCLLALWCFAGFLL”, the “transcriptional activation domain activity” value came out at 69300.

In the case of “SLPFHCTLLLVVINLIAVVAILWTRFASKLLGSSVCAFLYIFVGTFTILIHVR”, the “transcriptional activation domain activity” value was found to be 20500.

Regarding “SLPLPDTLPFPLPDSLHLPLTDDFSLTLQDALPFLYMDSLPFPLPMPFLFYFW”, the “transcriptional activation domain activity” value amounted to 69600.

With “SLPPPRFSPMFSFSLMSYLRCFDYYVCFFFSLFCFFSPALLVEGVVTFFSFIH”, the “transcriptional activation domain activity” value turned out to be 60100.

As for “SLPSTTPAGAPPTDAAKPAGGLFGNTSAQASTGSSGLFGNAAKPATTSASSAQ”, the “transcriptional activation domain activity” value turned out to be 16100.

As to “SLPVSKGVWGSVGRVILLIFTAKPLEFCIQLTLVDFVEVDAHTMRVIHCRKVR”, the “transcriptional activation domain activity” value is 28100.

Consider “SLPYFLYICDWYLCNSFLYLSSILSFHCVYLCCFASIITLWFPAFFLTVILSI”, for which the “transcriptional activation domain activity” value came to 51500.

Regarding “SLQEIDKMRVDGKFVDSEGIGRRPICVSSSILKQVLLYLLRRCYGLIYRLLSS”, the “transcriptional activation domain activity” value amounted to 33800.

For “SLQLLYFMPVRYYTYHKRGYHYFLADLCYFVNVLLLLSIWIFPNSRRLMISTY”, the “transcriptional activation domain activity” value is 65100.

Turning to “SLRLLLTVLAGYPIAIVYRLIFLNKTSTIIGASARNWFCLVAGLSLSYYFNSF”, the “transcriptional activation domain activity” value worked out at 70800.

Consider “SLRVDTSVTCCKLRSFSHIVTSYIEVLFLLKILREFLYADLFVHIWLALSLLA”, for which the “transcriptional activation domain activity” value stood at 62700.

For the sequence “SLSFTPPHSNPPSPSFLLPFPLPFLLPFPPLSFPFPPPFAFPFTPFPPFPFSP”, the “transcriptional activation domain activity” value was found to be 38700.

In the case of “SLSRIVGRGGAQINQIKEDTEVESLDVNQEGEGDSATVTLKGTKTAVAAAKKA”, the “transcriptional activation domain activity” value came to 21900.

For the sequence “SLSRKKRGRGRPKGSKNKKSGDGAASSAAPSGDATGKRKRGRPPKEKPAEATA”, the “transcriptional activation domain activity” value turned out to be 44300.

Take “SLSSSRVLGEHGNGPDGEGGFVHVSYRISLDEENELQMRVRPSERGGGEGVDG”: the “transcriptional activation domain activity” value came out at 39200.

Take “SLSTFVYTFLRFHFYFFAFFLVALTFSFFLLFCSLFVCPVGIIFLYFFIFFVL”: the “transcriptional activation domain activity” value worked out at 52100.

For “SLSVVLLHMRHRRLLFSVVMILFIFWMLYVGHCMLYVLLLLRVLLLSLHLWIV”, the “transcriptional activation domain activity” value stood at 31700.

As to “SLTHGMPQDLRRAVRNGVRLASAEDQERYFTFILHEAVRLYGVLMMRIVYRLF”, the “transcriptional activation domain activity” value was determined as 55300.

Take “SLTQLIWYLLRRRPFTVLQLNHLFGLPDPLRILHLASSRRLWNAIPVITIATL”: the “transcriptional activation domain activity” value came out at 54600.

“SLTREFNDIGLLTELHYVQGIETLIKIGTRFSMVAALVVYRNFRWHLSSAIPP”: the “transcriptional activation domain activity” value was found to be 48200.

On to “SLVAATATAVEAEPPQPVKRPRGRPKKDATVASSPKPARATKAKAKAKAAVPP”, for which the “transcriptional activation domain activity” value came to 24700.

“SLVDFHKFFKWLLLKVVKGLNKLRNLHNERPKELQTNEMEHLLNLMKIVRFFA”: the “transcriptional activation domain activity” value stood at 46500.

For “SLVLPCLSSYHYRFIDDYHVLHAQVKLMQGVLWWSMVQNITVYLLFLLLFLFA”, the “transcriptional activation domain activity” value turned out to be 25200.

As to “SLVLQTVFLYMVERVDICIDYLKVHRRFREAEVYLLRFQQCMTRAMTLIKMYF”, the “transcriptional activation domain activity” value is 75700.

For “SLWCLVIFPCSLVFLGLVGPVLSWFFLSFLFSWLIGRLVLYLILFLLFVTDWA”, the “transcriptional activation domain activity” value turned out to be 22000.

As for “SLYLCLGMLYLRKNPLLKEPLTLEHIKARLLGHWGSDAGQIFTYIHFNRLIKK”, the “transcriptional activation domain activity” value is 69300.

On to “SLYRVWDCKSTMLAFSKYIPQIHSPSALEYALVSMGSDFVLFLLRRIFEILKK”, for which the “transcriptional activation domain activity” value was found to be 55500.

For the sequence “SMDQIREYNTRLQLVNAQSFDYTDNPYSFNVGINQDSAVFDLMTSPFTQEEVL”, the “transcriptional activation domain activity” value was determined as 112000.

For the sequence “SMGENLFDVFRARVILTWYYWTHARWCDVYMSSVISLRLAVTCGLNGCPPFQT”, the “transcriptional activation domain activity” value worked out at 75000.

As for “SMHCGVVPCCFFVCLCLISFVYLEISIIFLGHSFFLSLSFFYIMNLFYTWWVS”, the “transcriptional activation domain activity” value worked out at 25200.

For the sequence “SMLEQQESTSAARAEGQRGGAVQEGDIELVDAACVQLASRISPKSLLQRPMVD”, the “transcriptional activation domain activity” value was determined as 31900.

As for “SMLKIARQSPRGIRDSKGGEGFLLLESGDQSTNIVTVVRIKLLMEKLYTLPEL”, the “transcriptional activation domain activity” value worked out at 32200.

In the case of “SMLNGFAGLDDIPMENILRFLNRFVVNNLLLDILCQCSRHARRTLAGNIFRAA”, the “transcriptional activation domain activity” value was 47000.

For the sequence “SMLSYHLWMVMHAETSVESQDFHIYRKVAKRRGETFTNSYDLGKIRNLELFFN”, the “transcriptional activation domain activity” value stood at 61200.

On to “SMNYISITAPIYDRGPDSTCLLGSTVCSYFDYDTWTLSLTLWVLIQLTWSMFL”, for which the “transcriptional activation domain activity” value was determined as 60800.

In the case of “SMRAPLFTELGLLPLRFRRLILALRYLSYLITLPHEHYASAALQDAFDLYSQG”, the “transcriptional activation domain activity” value was found to be 24100.

Turning to “SMRDSASDQETSWELQMFKTENVPESTTLPAVDNNNLFDAVASPLADPLCDDI”, the “transcriptional activation domain activity” value stood at 53300.

As for “SNAAWGVMITFFQIIGLFDKYPIYWDSRLGDVVKAVSITILNTDYINLQCAYG”, the “transcriptional activation domain activity” value is 73900.

Turning to “SNARGSDPSSYAIEGEYKTLATDDLGNILNLNYGETNEVIMNEINDLNLPLGP”, the “transcriptional activation domain activity” value is 112000.

“SNASLSAQHPLGIDEEDLSSKPRCQRCRKSKKGCDRQRPCGRCKDAGIGIEGC”: the “transcriptional activation domain activity” value stood at 35300.

With “SNDGEDENGDGVSNEKSGRKKGKGRRKRGKDQAQVKGDQEPQDGEAGGEGGAE”, the “transcriptional activation domain activity” value stood at 21600.

With “SNDSSDEEDRKSRRKSKKKAKDRDASKERSKKDDKGKKKSRTSKGRSRKDEDS”, the “transcriptional activation domain activity” value amounted to 18600.

With “SNEGFDYDVELKKKNIGLILAFKEHECDSDQLVAYLVYQRMKRIVWLHKLCVV”, the “transcriptional activation domain activity” value was 64600.

Consider “SNFASKVNTQLNLLQHSSSNSNFLDASPYDFNKIFMNNFENYDYETDEGYAED”, for which the “transcriptional activation domain activity” value worked out at 63600.

As to “SNGKEMAFQYYSFVKEWGHVLGRYPGEIERCLIGTLGNIFFSGVKPIANSYFL”, the “transcriptional activation domain activity” value came out at 45400.
